Results from the nanobody polyreactivity screen of Harvey et al. (2022).

Test: yeast display, Sf9 membrane polyspecificity reagent, FACS + sequencing; frameworks hold sequencing errors
Procedure, shortened: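 Galactose-induced (36–48 hours) yeast carrying a synthetic nanobody display library were exposed to 10% biotinylated, detergent-solubilized Sf9 membrane reagent at 4 °C for 1 hour. FACS followed streptavidin microbead enrichment, using low and high (top ~1%) gates for expression (anti-HA) and reagent binding (streptavidin). Colony PCR, MiSeq 2 × 250 sequencing and CDR-length filtering followed. Labels for polyreactivity reflect the gate of origin.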

Sequence	polyreactivity (PSR sort gate)
QVQLVESGGGLVQAGGSLRLSCAASGITFTPYALGWSRPAPGKERELVAAISASGGNTYYADSVKGRFTISRDNAKNTVYLQMNSLKPDDTAVYYCAAVVAFATGTYYYWGQGTQVTVSS	high polyreactivity
QVQLVESGGGLVQAGGSLRLSCAASGITFTRNVMGWYRQAPGKERELVAAISGSGGSTYYADSVKGRFTISRDNAKNTVYLQMNSLKPEDTAVYYCAARSRGGRRYDYWGQGTQVTVSS	high polyreactivity
QVQLVESGGGLVQAGGSLRLSCAASGITFTRYAMGWYRQAPGKEMEFVAAIRRSGGNTYYADSVKGRFTISRDNAKNTVYLQMNSLKPEDTAVYYCAASFRKTSPTRLVDYWGQGTQVTVSS	low polyreactivity
QVQLVESGGGLVQAGGSLRLSCAASGITFTSYAMGWYRQAPGKERELVAAISSSGVRTYYADSVKGRFTISRDNAKNTVYLQMNSLKPEDTAVYYCATRRRVLNCYDYWGQGTQVTVSS	high polyreactivity
QVQLVESGGGLVQAGGSLRLSCAASGITFTYYVMGWYRQAPGKERELVAAITWRGGRTRYADSVKGRFTISRDNAKNTVYLQMNSLKPEDTAVYYCAADLHQRRYYYWGQGTQVTVSS	high polyreactivity
QVQLVESGGGLVQAGGSLRLSCAASGITFVANAMGWYRQAPGKERELVAGITQTGGSTYYADSVKGRFTISRDNAKNTVYLQMNSLKPEDTAVYYCAATYRRLRYGKLLYYWGQGTQVTVSS	high polyreactivity
QVQLVESGGGLVQAGGSLRLSCAASGITFVDYAMGWYRQAPGKERELVAAITTGGSTNYADSVKGRFTISRDNAKNTVYLQMNSLKPEDTAVYYCNKRPVILYDYWGQGTQVTVSS	low polyreactivity
QVQLVESGGGLVQAGGSLRLSCAASGITFVFNAMGWYRQAPGKERELVASITIGGNTYYADSVKGRFTISRDNAKNTVYLQMNSLKPEDSAVYYCAADIARSVRFYYWGQGTQVTVSS	low polyreactivity
QVQLVESGGGLVQAGGSLRLSCAASGITFVFYAMGRYRPAPGKERELVAAISSSGGSTYYADSVKGRFTISRDNAKNTVYLQMNSLKAEDTAVYYCNAKVFSYQGAVRYDYWGQGTQVTVSS	high polyreactivity
QVQLVESGGGLVQAGGSLRLSCAASGITFVFYTMGWYRQAPGKERELVAAISRSGASTYYADSVKGRFTISRDNAKNTVYLQMNSLKPEDTAVYYCAADRGYRFRMDYWGQGTQVTVSS	high polyreactivity
QVQLVESGGGLVQAGGSLRLSCAASGITFVHYAMGWYRQAPGKEREFVAAITKGGGSTSYADSVKGRFTISRDNAKNTVYLQMNSLKPEDTAVYYCAATYYAYGFSISYYYWGQGTQVTVSS	high polyreactivity
QVQLVESGGGLVQAGGSLRLSCAASGITFVHYAMGWYRQAPGKERELVASITRRGGSTYYADSVKGRFTISRDNAKNTVYLQMHSLKPEDTAVYYCAARWSAWSGYIFDYWGQGTQVTVSS	high polyreactivity
QVQLVESGGGLVQAGGSLRLSCAASGITFVNNAMGWYRQAPGKEREFVAAISWSGGNTYYADSVKGRFTISRDNAKNTVYLQMISLKPEDTAVYYCSGYISRSRFRFYYWGQGTQVTVSS	low polyreactivity
QVQLVESGGGLVQAGGSLRLSCAASGITFVNYAMGWYRQAPGKERELVAAITSGGNTYYADSVKGRFTISRDNAKNTVYLQMNSLKPEDTAVYYCAAKWFYGKPYRGYYYWGQGTQVTVSS	high polyreactivity
QVQLVESGGGLVQAGGSLRLSCAASGITFVRYAKGWYRHAPGKEREFVARISRSGASTYYADSVKGRFTISRDNAKNTVYLQMNSLKPEDTAVYYCNAVPGGSRFDYWGQGTQVTVSS	high polyreactivity
QVQLVESGGGLVQAGGSLRLSCAASGITFVRYAMGWYRQAPGKERELVAVISRGGITNYADSVKGRFTISRDNAKNTVYLQMNSMKPEDTAVYYCAVRGRSYVRTYDYWGQGTQVTVSS	high polyreactivity

Sequence	polyreactivity (PSR sort gate)
QVQLVESGGGLVQAGGSLRLSCAASGITFVSNVMGWYRQAPGKEREFVAAINVSGDSTTYADSVKGRFTISRDNAKNTVYLQRNSLKPEDTAVYYCAAEYNFPEFPWGGEYDYWGQGTQVTVSS	low polyreactivity
QVQLVESGGGLVQAGGSLRLSCAASGITFVYYAMGWYRQAPGKERELVASISSADNTHYADSVKGRFTISRDNAKNTVYLQMNSQKPEDTAVYYCAADYWWNLRHYSTGGYWGQGTQVTVSS	low polyreactivity
QVQLVESGGGLVQAGGSLRLSCAASGITFWDYAMGWYRQAPGTERELVAANSRSGGSTYYADSVKGRFTISRDNAKKTVYLQMNSLKPEDTAVYFCAAYTRRPIYDYWGQGTQVTVSS	high polyreactivity
QVQLVESGGGLVQAGGSLRLSCAASGITFWGYAMGWYRQAPGKEREFVARINWSGGRTYYAESVKGRFTISRDNAKKTVYLQMNSLKPEDTAVYYCAATSRIYGYRTYDDWGQGTQVTVSS	high polyreactivity
QVQLVESGGGLVQAGGSLRLSCAASGITFWKYTMGWYRQAPGKERELVAAITGRGGSTYYADSVKGRFTISRDNAMNTVYLQMNRLKPEDTAVYYCAAELRPGYRSSYGLIYDYWGQGTQVTVSS	low polyreactivity
QVQLVESGGGLVQAGGSLRLSCAASGITFWNNAMGWYRQAPGKERELVATISSNGGRTYYADSVKGRFTISRDNAKNTVYLQMNSLKPEDTAVYYCNAARRAYGYNYWGQGTQVTVSS	low polyreactivity
QVQLVESGGGLVQAGGSLRLSCAASGITFWNYAMGWYRQAPGKERELVARISRGGSTNYADSVKGRFTISRDNAKNTVYLQMNSLKPEDNAVYYCAARWYSSTQTGNYWGQGTQVTVSS	high polyreactivity
QVQLVESGGGLVQAGGSLRLSCAASGITFWSNAMGWYRQAPGKERELVAAITSSGGSTYYADSVKGRFTISRDNAKNNVYLQMNSLKPEDTAVYYCAAPISRSAGWDSYDYWGQGTQVTVSS	low polyreactivity
QVQLVESGGGLVQAGGSLRLSCAASGITFWTYAMGWYIQAPGKERELVAAISNGGSTSYADSVKGRFTISRDNAKNTVYLQMNSLKPEDTAVYYCAADWATHRPWYWWVYYWGQGTQVTVSS	low polyreactivity
QVQLVESGGGLVQAGGSLRLSCAASGITFWYYAMGWYRQAPGKERELVAVISRGGSTYYADSVKGRFTISRDNAKNTVYLQMNSLKPEDTAVYYCAARPRWYTYTRQEYDYWGQGTQVTVSS	high polyreactivity
QVQLVESGGGLVQAGGSLRLSCAASGITFYDYAMGWYRQAPGKERELVAAINSSGVRTYYADSVKGRFTISRDNAKNTVYLQMNSLKPEVTAVYYCAAVRRGPYISRSDMDYYWGQGTQVTVSS	high polyreactivity
QVQLVESGGGLVQAGGSLRLSCAASGITFYDYAMGWYRQAPGKERELVAAISFSGSRTYYADSVKGRFTISRDIAKNTVYLQMNSLKPEDTAVYYCAASQARNYKIYDYWGQGTQVTVSS	high polyreactivity
QVQLVESGGGLVQAGGSLRLSCAASGITFYDYTMGWYRQAPGKERELVAAISSRGGSTYYADSVKGRFTISRDNAKNTVYLQMNSLKPEDTAVYYCNADYIYSFYWSFYEYDYWGQGTQVTVSS	high polyreactivity
QVQLVESGGGLVQAGGSLRLSCAASGITFYEYDMGWYRQAPGKERELVAAITSRGGSTYYADSVKGRFTISRDNAKNTVYLQMNSLKPEDTAVYYCNAVRGWLYVFSYPYWDDEYWGQGTQVTVSS	high polyreactivity
QVQLVESGGGLVQAGGSLRLSCAASGITFYGNAMGWYRQAPGKERELVAAINWGGTGTYYADSVKGRFTISRDNAKNTVYLQMNSLKPEDTAVYYCAAEVYTWGQGTQVTVSS	low polyreactivity
QVQLVESGGGLVQAGGSLRLSCAASGITFYGYAMGWYRQAPGKERELVASISYGGGSTYYADSVKGRFTISRDNAKNTVYFQLNSLKPEDTAVYYCAAQAATYYSGYYYWGQGTQVTVSS	high polyreactivity
